B2: 6xHis-hRad51 (natural protein, human, UniProt Q06609 1-339, looked up)
chain: MAMQMQLEANADTSVEEESFGPQPISRLEQCGINANDVKKLEEAGFHTVEAVAYAPKKELINIKGISEAKADKILAEAAKLVPMGFTTATEFHQRRSEIIQITTGSKELDKLLQGGIETGSITEMFGEFRTGKTQICHTLAVTCQLPIDRGGGEGKAMYIDTEGTFRPERLLAVAERYGLSGSDVLDNVAYARAFNTDHQTQLLYQASAMMVESRYALLIVDSATALYRTDYSGRGELSARQMHLARFLRMLLRLADEFGVAVVITNQVVAQVDGAAMFAADPKKPIGGNIIAHASTTRLYLRKGRGETRICKIYDSPCLPEAEAMFAINADGVGDAKD
notes: human Rad51 recombinase; also called recombinant hRad51; source: E. coli BL21 (DE3), purified (Ni-NTA)

Assays:
Settings in all cases: both partners purified
[1] = target: T1, GST-Srs2 (yeast (Saccharomyces cerevisiae), UniProt P12954 1-1174); assay: pull-down; GST-Srs2 on beads with 6xHis-tagged WT, truncated or mutated Bre1; detected by Western blot with an anti-His antibody; whether ssDNA was included is not told
T1 construct: Srs2 helicase, yeast; also called recombinant GST-Srs2
T1 sequence (looked up): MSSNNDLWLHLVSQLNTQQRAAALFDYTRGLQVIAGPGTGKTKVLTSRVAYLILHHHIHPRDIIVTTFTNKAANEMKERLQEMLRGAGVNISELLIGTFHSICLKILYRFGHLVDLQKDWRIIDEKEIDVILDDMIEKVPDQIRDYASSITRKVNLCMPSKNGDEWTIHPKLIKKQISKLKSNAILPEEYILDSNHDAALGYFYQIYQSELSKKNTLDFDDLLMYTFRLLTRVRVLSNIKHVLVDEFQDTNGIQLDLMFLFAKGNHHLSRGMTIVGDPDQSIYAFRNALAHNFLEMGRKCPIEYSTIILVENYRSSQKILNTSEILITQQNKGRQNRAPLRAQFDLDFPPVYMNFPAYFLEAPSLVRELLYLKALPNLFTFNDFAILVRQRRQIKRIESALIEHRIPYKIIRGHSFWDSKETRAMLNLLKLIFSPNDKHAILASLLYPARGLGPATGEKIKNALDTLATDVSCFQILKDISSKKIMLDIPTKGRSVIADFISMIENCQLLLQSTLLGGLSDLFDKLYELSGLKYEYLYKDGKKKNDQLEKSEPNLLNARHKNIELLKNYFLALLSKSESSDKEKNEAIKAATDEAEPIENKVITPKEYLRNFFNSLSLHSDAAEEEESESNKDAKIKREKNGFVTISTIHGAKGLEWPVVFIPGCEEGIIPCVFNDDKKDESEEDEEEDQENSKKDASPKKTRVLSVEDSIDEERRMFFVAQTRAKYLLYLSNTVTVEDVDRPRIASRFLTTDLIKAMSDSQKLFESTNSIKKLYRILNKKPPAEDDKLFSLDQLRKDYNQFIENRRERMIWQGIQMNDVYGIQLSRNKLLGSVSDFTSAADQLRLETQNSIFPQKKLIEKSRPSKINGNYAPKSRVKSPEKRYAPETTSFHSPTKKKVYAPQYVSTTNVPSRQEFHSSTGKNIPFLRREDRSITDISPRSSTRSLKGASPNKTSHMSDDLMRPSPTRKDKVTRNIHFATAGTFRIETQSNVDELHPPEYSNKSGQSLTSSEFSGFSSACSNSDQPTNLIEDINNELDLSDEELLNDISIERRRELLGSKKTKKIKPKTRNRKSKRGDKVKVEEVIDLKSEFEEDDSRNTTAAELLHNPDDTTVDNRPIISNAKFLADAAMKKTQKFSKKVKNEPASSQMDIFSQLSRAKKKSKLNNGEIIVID

[2] = target: T2, GST-RNF20 (human, UniProt Q5VTR2 1-975); assay: pull-down; GST-tagged Bre1 (WT, truncated or mutant) or GST-RNF20 on glutathione agarose beads, incubated with 6xHis-tagged Rad51, hRad51 or FBH1 at 4 °C for 4 h; wash 20 mM Tris-HCl pH 7.4, 200 mM NaCl; Western blot or Coomassie
T2 construct: RNF20, human homolog of Bre1; an asterisk marks the full-length band on the gel; also called full-length GST-RNF20

[3] = target: B2; assay: pull-down; ssDNA pull-down: 5'-biotinylated 90-nt ssDNA on streptavidin magnetic beads, yeast or human Rad51 bound first, then Bre1 or RNF20N added; 37 °C; 42 mM Tris-HCl pH 7.5, 15 mM KCl, 90 mM NaCl, 2 mM ATP; Bre1 or RNF20N alone did not bind the ssDNA
[4] = target: T3, GST-tagged truncated Bre1 1-504 aa (yeast (Saccharomyces cerevisiae), UniProt Q07457 1-504); assay: pull-down; GST-tagged Bre1 (WT, truncated or mutant) or GST-RNF20 on glutathione agarose beads, incubated with 6xHis-tagged Rad51, hRad51 or FBH1 at 4 °C for 4 h; wash 20 mM Tris-HCl pH 7.4, 200 mM NaCl; Western blot or Coomassie
T3 construct: source: recombinant, GST-tagged
T3 sequence (looked up): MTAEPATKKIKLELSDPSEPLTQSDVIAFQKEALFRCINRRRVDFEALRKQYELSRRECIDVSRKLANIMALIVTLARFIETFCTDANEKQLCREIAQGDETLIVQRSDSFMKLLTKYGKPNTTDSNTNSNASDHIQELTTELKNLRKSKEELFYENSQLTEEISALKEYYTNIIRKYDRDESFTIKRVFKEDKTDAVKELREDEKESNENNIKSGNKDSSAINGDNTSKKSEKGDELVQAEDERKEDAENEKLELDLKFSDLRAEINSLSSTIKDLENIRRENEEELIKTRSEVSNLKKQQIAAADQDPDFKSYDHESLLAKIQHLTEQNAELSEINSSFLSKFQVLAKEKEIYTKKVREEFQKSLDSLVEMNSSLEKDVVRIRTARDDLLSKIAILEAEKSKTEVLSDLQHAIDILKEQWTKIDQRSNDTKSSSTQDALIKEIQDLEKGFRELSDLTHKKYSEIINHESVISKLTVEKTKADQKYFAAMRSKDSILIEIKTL

[5] = target: T4, GST-Bre1 (yeast (Saccharomyces cerevisiae), UniProt Q07457 1-700); assay: as above
T4 construct: Bre1, yeast ubiquitin E3 ligase; RBD 1-210, linker 211-614, RING 615-700; also called GST-tagged WT Bre1; recombinant GST-Bre1
T4 sequence (looked up): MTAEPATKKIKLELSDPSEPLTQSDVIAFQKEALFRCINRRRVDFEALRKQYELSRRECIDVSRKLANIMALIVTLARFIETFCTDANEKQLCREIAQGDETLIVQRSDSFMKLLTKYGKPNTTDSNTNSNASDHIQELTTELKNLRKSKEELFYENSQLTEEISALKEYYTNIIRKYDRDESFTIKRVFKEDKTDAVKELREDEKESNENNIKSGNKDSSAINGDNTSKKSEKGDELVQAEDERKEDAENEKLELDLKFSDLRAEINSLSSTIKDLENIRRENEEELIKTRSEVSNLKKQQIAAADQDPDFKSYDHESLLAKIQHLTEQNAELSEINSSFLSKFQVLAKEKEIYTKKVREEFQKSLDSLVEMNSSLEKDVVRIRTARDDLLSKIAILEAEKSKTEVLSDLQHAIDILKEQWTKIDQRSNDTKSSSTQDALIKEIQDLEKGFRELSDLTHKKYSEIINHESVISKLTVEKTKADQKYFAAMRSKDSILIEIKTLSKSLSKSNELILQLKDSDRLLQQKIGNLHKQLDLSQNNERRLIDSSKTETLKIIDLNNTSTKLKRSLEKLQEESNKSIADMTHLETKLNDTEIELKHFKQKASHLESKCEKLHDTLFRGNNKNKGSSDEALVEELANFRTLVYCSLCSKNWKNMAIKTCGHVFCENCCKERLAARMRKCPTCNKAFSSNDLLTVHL

[6] = target: T5, 6xHis-Bre1 (yeast (Saccharomyces cerevisiae), UniProt Q07457 1-700); assay: pull-down; ssDNA pull-down: 5'-biotinylated 90-nt ssDNA on streptavidin magnetic beads, yeast or human Rad51 bound first, then Bre1 or RNF20N added; 37 °C; 42 mM Tris-HCl pH 7.5, 15 mM KCl, 90 mM NaCl, 2 mM ATP; Bre1 or RNF20N alone did not bind the ssDNA
T5 construct: Bre1, yeast ubiquitin E3 ligase; also called WT Bre1; wild-type Bre1; source: E. coli BL21 (DE3), purified (Ni-NTA)
T5 sequence (looked up): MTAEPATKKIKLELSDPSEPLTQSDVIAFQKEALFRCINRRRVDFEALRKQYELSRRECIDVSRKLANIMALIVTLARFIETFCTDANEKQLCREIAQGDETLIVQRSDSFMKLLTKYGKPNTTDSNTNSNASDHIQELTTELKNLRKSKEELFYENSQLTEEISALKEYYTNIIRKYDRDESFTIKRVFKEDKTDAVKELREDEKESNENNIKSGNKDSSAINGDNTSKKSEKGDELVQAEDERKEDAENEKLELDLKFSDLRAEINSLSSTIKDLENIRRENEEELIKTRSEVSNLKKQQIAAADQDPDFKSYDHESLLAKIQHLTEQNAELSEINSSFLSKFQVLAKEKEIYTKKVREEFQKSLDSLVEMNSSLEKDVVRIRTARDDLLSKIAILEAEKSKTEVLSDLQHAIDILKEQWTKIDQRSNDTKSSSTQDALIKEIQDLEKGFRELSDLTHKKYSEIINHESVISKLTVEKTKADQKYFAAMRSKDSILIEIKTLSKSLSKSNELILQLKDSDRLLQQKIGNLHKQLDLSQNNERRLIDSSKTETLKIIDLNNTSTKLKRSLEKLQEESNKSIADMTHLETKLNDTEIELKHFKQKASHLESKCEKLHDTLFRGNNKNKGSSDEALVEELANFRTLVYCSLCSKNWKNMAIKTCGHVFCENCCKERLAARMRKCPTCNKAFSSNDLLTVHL

B1: 6xHis-tagged Bre1 truncation 1-501 aa (domain or fragment, yeast (Saccharomyces cerevisiae), UniProt Q07457 1-501, looked up)
chain: MTAEPATKKIKLELSDPSEPLTQSDVIAFQKEALFRCINRRRVDFEALRKQYELSRRECIDVSRKLANIMALIVTLARFIETFCTDANEKQLCREIAQGDETLIVQRSDSFMKLLTKYGKPNTTDSNTNSNASDHIQELTTELKNLRKSKEELFYENSQLTEEISALKEYYTNIIRKYDRDESFTIKRVFKEDKTDAVKELREDEKESNENNIKSGNKDSSAINGDNTSKKSEKGDELVQAEDERKEDAENEKLELDLKFSDLRAEINSLSSTIKDLENIRRENEEELIKTRSEVSNLKKQQIAAADQDPDFKSYDHESLLAKIQHLTEQNAELSEINSSFLSKFQVLAKEKEIYTKKVREEFQKSLDSLVEMNSSLEKDVVRIRTARDDLLSKIAILEAEKSKTEVLSDLQHAIDILKEQWTKIDQRSNDTKSSSTQDALIKEIQDLEKGFRELSDLTHKKYSEIINHESVISKLTVEKTKADQKYFAAMRSKDSILIEI
notes: source: recombinant, 6xHis-tagged
binding result [1]: binds

B2
binding result [2]: binds

B3: GST-RNF20N (domain or fragment, human, UniProt Q5VTR2 1-300, looked up)
chain: MSGIGNKRAAGEPGTSMPPEKKAAVEDSGTTVETIKLGGVSSTEELDIRTLQTKNRKLAEMLDQRQAIEDELREHIEKLERRQATDDASLLIVNRYWSQFDENIRIILKRYDLEQGLGDLLTERKALVVPEPEPDSDSNQERKDDRERGEGQEPAFSFLATLASSSSEEMESQLQERVESSRRAVSQIVTVYDKLQEKVELLSRKLNSGDNLIVEEAVQELNSFLAQENMRLQELTDLLQEKHRTMSQEFSKLQSKVETAESRVSVLESMIDDLQWDIDKIRKREQRLNRHLAEVLERVN
notes: also called N-terminal fragment RNF20N (1-300 aa)
binding result [3]: binds

B4: 6xHis-Rad51 (natural protein, yeast (Saccharomyces cerevisiae), UniProt P25454 1-400, looked up)
chain: MSQVQEQHISESQLQYGNGSLMSTVPADLSQSVVDGNGNGSSEDIEATNGSGDGGGLQEQAEAQGEMEDEAYDEAALGSFVPIEKLQVNGITMADVKKLRESGLHTAEAVAYAPRKDLLEIKGISEAKADKLLNEAARLVPMGFVTAADFHMRRSELICLTTGSKNLDTLLGGGVETGSITELFGEFRTGKSQLCHTLAVTCQIPLDIGGGEGKCLYIDTEGTFRPVRLVSIAQRFGLDPDDALNNVAYARAYNADHQLRLLDAAAQMMSESRFSLIVVDSVMALYRTDFSGRGELSARQMHLAKFMRALQRLADQFGVAVVVTNQVVAQVDGGMAFNPDPKKPIGGNIMAHSSTTRLGFKKGKGCQRLCKVVDSPCLPEAECVFAIYEDGVGDPREEDE
notes: Rad51 recombinase, yeast; also called 6xHis-tagged Rad51; yeast Rad51; source: E. coli BL21 (DE3), purified (Ni-NTA)
binding result [4]: binds | binding result [5]: binds | binding result [6]: binds

Reference: publication PMC10213050 (Nature Communications, 2023)
